Laboratory results taken from patent publication US20090029421, “Recombinase polymerase amplification” (published 2009).

Key:
Test in all cases: competition; excess ssDNA oligo titrates gp32 off probe
Settings in all cases: tags: C-terminal His6
gp32 (Aeh1) = target: T1, gp32 (Aeh1) (Aeromonas phage Aeh1)
T1 chain: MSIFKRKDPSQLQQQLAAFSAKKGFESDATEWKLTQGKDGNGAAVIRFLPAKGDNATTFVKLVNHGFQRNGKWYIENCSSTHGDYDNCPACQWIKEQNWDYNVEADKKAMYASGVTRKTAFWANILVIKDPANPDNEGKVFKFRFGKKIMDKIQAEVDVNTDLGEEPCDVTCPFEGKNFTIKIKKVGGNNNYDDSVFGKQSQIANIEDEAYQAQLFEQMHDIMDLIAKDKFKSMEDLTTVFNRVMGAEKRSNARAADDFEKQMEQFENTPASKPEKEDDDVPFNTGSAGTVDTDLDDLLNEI
Procedure: (§1) In this experiment, the effects of these challenges on Rb69 gp32, T4 gp32 and Aeh1 gp32 were compared.
(§2) An experiment was performed to assess whether gp32 molecules from different species of origin were biochemically distinct from one another. Experimental conditions were as follows: reactions were performed in 50 ul volume; final concentration of probe (SA-Tamra2; 5′-tgttaattgagcaagtgtatagagcattraygabtatgcgtggag-3′ (SEQ ID NO:126), here y=thf, b=BHQ2-dT, r=TAMRA-dT, 3′=Bio-TEG) was 100 nM; Rb69 pg32 was used at final concentration of 80 ng/μl, Nfo was present at 33 ng/μl; after 350 sec either water, dsDNA (550 ng human genomic DNA; i.e. approximately 10× mass of oligonucleotide probe) or ssDNA ([…] oligonucleotide of sequence 5′[…]-3′ (SEQ ID NO:127)) was added; buffer conditions were 20 mM Tris-acetate, 50 mM potassium acetate (pH 7.9), 10 mM Magnesium Acetate, 1 mM Dithiothreitol. Measurements were made in a fluorometer manufactured by Embedded System Engineering (ESE, GmbH) with LED excitation of 520 nm and emission at 585 nm.
(§3) Initially, a concentration of gp32 was established which permitted only a very low cutting activity by Nfo nuclease on the fluorophore/quencher probe. At this concentration the availability of gp32 was limited to a minimal quantity for substantial probe protection, and under these conditions it was possible to assess very sensitively whether gp32 was partitioned away from the probe in competition experiments. After monitoring the slow probe cutting for a while, excess double-stranded DNA or single-stranded oligonucleotides were added to assess whether this affected the distribution of gp32 on the probe. […] Clearly Rb69 and Aeh1 gp32 molecules differentiated and partitioned much more effectively in favour of single-stranded DNA than T4 gp32.

gp32 (T4) = target: T2, gp32 (T4) (Enterobacteria phage T4, UniProt P03695 SEQ:1-301)
T2 sequence: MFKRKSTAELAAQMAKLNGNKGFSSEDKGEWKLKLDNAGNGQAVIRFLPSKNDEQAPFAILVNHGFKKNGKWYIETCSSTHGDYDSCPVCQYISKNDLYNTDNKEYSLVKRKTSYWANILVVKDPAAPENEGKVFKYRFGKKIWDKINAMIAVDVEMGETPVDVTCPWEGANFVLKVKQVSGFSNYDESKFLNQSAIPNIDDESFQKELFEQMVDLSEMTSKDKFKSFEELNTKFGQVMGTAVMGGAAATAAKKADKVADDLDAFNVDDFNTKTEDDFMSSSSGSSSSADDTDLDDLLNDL
Procedure: as §1, §2, §3

gp32 (Rb69) = target: T3, gp32 (Rb69) (Enterobacteria phage RB69)
T3 chain: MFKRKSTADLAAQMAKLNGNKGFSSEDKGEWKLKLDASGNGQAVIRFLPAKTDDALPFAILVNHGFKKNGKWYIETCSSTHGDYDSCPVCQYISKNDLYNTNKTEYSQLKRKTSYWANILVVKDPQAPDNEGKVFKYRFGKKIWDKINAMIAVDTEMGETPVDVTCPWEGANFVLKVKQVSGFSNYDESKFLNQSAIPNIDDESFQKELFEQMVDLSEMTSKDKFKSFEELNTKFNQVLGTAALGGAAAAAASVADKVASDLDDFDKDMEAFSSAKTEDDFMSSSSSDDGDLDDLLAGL
Procedure: as §1, §2, §3

Measured: binding result

B1: competitor oligonucleotide (ssDNA)
DNA: CTGTATTAGAAGTACATGCTGATCAAGTGACA
binds: all assays above
